# Laboratory results taken from patent US11952373B2, “Method of treating hypercytokinemia by administering the CCR5/CCL5 (RANTES) interaction inhibitor maraviroc” (priority 2020, dated 2024).
# “Also recorded” adds a separate entry of the source.
# B1: leronlimab: a humanized monoclonal antibody directed against CCR5 (antibody, chains of the INN, looked up, V domains shown)
# VH: EVQLVESGGGLVKPGGSLRLSCAASGYTFSNYWIGWVRQAPGKGLEWIGDIYPGGNYIRNNEKFKDKTTLSADTSKNTAYLQMNSLKTEDTAVYYCGSSFGSNYVFAWFTYWGQGTLVTVSS
# VL: DIVMTQSPLSLPVTPGEPASISCRSSQRLLSSYGHTYLHWYLQKPGQSPQLLIYEVSNRFSGVPDRFSGSGSGTDFTLKISRVEAEDVGVYYCSQSTHVPLTFGQGTKVEIK
# Experiments:
# [1] = test system: IL-6; assay: Plasma cytokine/chemokine panel in critical COVID-19 patients, IL-6; type: in vivo, human; conditions: Day 7 post-leronlimab vs Day 0, critical COVID-19 patients
# Source text: (§1) To determine the extent and phenotype of “cytokine storm” cytokines and chemokines in critical COVID-19, a panel of 38 cytokines/chemokines was quantified in plasma from the ten critical COVID-19 patients at Day 0, Day 3 and Day 7 post-leronlimab therapy.
# [2] = test system: CCL5/RANTES; assay: Plasma cytokine/chemokine panel in critical COVID-19 patients, CCL5/RANTES; type: in vivo, human
# Source text: as §1
# [3] = test system: CD8 and CD4 T-cells (PD-1, LAG-3, cleaved caspase 3); assay: Immunophenotyping / high parameter flow cytometry of T-cells and exhaustion markers in critical COVID-19 patients; type: in vivo, human; conditions: for exhaustion markers (PD-1, LAG-3, cleaved caspase 3) on CD8 and CD4 T-cells: after 700 mg leronlimab, all ten patients
# [4] = test system: critically ill patients with COVID-19; assay: Clinical outcome of critically ill COVID-19 patients given leronlimab; type: in vivo, human; conditions: by Day 14, 10 critically ill COVID-19 patients
# [5] = biological target: CCR5 (Homo sapiens, UniProt P51681); conditions: day 7, all ten critical COVID-19 patients, 700 mg leronlimab
# Chain of CCR5 (P51681 whole entry): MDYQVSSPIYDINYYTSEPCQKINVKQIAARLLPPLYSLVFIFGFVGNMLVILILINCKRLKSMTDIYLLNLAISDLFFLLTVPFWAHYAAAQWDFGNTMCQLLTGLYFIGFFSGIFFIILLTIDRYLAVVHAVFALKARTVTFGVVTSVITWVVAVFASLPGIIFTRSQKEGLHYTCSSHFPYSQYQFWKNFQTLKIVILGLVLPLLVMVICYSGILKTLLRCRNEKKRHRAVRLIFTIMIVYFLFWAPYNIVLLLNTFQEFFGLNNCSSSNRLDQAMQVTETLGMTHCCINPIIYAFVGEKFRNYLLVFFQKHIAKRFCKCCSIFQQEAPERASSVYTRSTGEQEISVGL
molecule,measurement,setting,value
B1,plasma IL-6 level change,[1],reduces IL-6; also recorded: significantly decreased; also recorded: dropped dramatically
same,plasma CCL5/RANTES level change,"[2]; Day 7 post-leronlimab, critical COVID-19 patients",remained high; also recorded: did not drop as abruptly
same,plasma CCL5/RANTES level change,"[2]; Day 14, patients where data was available",initiation of a drop
same,"exhaustion markers (PD-1, LAG-3, cleaved caspase 3) on CD8 and CD4 T-cells",[3],improvement in exhaustion markers
same,"exhaustion markers (PD-1, LAG-3, cleaved caspase 3) on CD8 and CD4 T-cells",[3]; listed as Leronlimab,improvements in exhaustion markers
same,immune restoration including T-cell numbers,[3]; all patients,immune restoration
same,T-cell level and CD4/CD8 ratio,[3]; as little as 3 days post-therapy,begins to restore T-cell level and correct the gross alteration of CD4/CD8 ratio
same,immune profile compared to normal control blood,[3]; by Day 7 after 700 mg leronlimab,resembled the normal control blood
same,expression of PD-1 and LAG3 on T-cells,"[3]; following 7 days of leronlimab, compared to Day 0",significantly decreases
same,patients extubated and released,[4],4
same,patients surviving,[4],six out of 10
same,blockade of CCR5 as determined by receptor occupancy,[5],~100%
